Tested on: maternal Chd2 locus
Experiment: Donor-free interchromosomal homologous recombination (ICHR) in IVF-derived Chd2^R1684H/+ embryos
Type: cell-based, mouse
Protocol: tracrRNA, crRNAs, and ssODNs were synthesized by Integrated DNA Technologies (TABLE 1). All injection mixtures were prepared in a final volume of 50 μL according to the following methodology: Using RNase-free water, reagents, and consumables, crRNA (final concentration 0.61 μM), tracrRNA (final concentration 0.61 μM), and ultrapure Tris-HCl, pH 7.39 (final concentration 10 mM, ThermoFisher) were mixed and incubated at 95° C. for 5 minutes. The mixtures were cooled to room temperature for 10 minutes on the benchtop, and then, EnGen Cas9-NLS S. pyogenes (New England Biolabs) was added to a final concentration of 30 ng/μL. The mixtures were incubated at 37° C. for 15 minutes before adding any remaining components: ssODN (final concentration 3 ng/μL or 30 ng/μL), RAD51 (Creative Biomart, final concentration 10 ng/μL). Injection mixtures were stored on ice and briefly heated to 37° C. prior to injection. For experiments utilizing RS-1, embryos were cultured in KSOM-AA (EMD Millipore MR-121-D) with […] RS-1 (Sigma) dissolved in DMSO or DMSO (Sigma, 1:1000) for 24 hours, washed, and cultured in EmbryoMax FHM HEPES Buffered Medium (Sigma) until collection for genotyping.
For experiments using wildtype recombinant proteins, the following proteins were used: RAD51 (Creative Biomart RAD51-134H), USP1/WDR48 (Creative Biomart USP1&WDR48-1067H), BCCIP (Origene TP303061), XRCC1 (TP304952), XRCC4 (Origene TP312684), DMC1 (Origene TP318311). For experiments using mutant RAD51, custom RAD51 preparations were produced by Creative Biomart according to their standard protocol for producing the wildtype RAD51 used in all other experiments. Mutant DNA sequences used for cloning are described in TABLE 2. All RAD51 mutants were modeled in human RAD51 transcript variant 4 (NCBI accession NM_001164269), as this is the transcript variant of the wildtype RAD51-134H protein used in all other experiments.
In vitro fertilization was performed using FERTIUP® Mouse Preincubation Medium and CARD MEDIA (Kyudo Company) according to the manufacturer's protocol. Non-virgin Chd2^R1684H/R1684H males that were >8 weeks old were used as sperm donors. Following IVF, embryos were cultured for 8 hours and then injected using the PNI protocol described below.
For all experiments except those described in FIG. 6, the male pronucleus was injected. Injections performed for the CPI portion of FIG. 6 were targeted to the cytoplasm. All microinjections were performed using a Narishige Micromanipulator, Nikon Eclipse TE2000-S microscope, and Eppendorf 5242 microinjector. Individual zygotes were injected with 1-2 pL of injection mixture using an “automatic” injection mode set according to needle size and adjusted for clear increase in pronuclear volume. Following injections, cells were cultured in KSOM-AA until collection for genotyping. For experiments giving rise to F0 animals, embryos were surgically implanted into pseudopregnant CD-1 females (Charles River Laboratories, Strain Code 022) 24-hours post-injection and allowed to develop normally until natural birth.
Embryos were collected at morula-to-blastocyst stage in 4 μL nuclease-free water. After collection, 4 μL of 2× embryo digestion buffer was added to each sample (final concentrations: 125 μg/mL proteinase K, 100 mM Tris-HCl pH 8.0, 100 mM KCl, 0.02% gelatin, 0.45% Tween-20, 60 μg/mL yeast tRNA) and embryos were lysed for 1 hour at 56° C. Proteinase K was inactivated via incubation at 95° C. for 10 minutes and DNA was stored at −20° C. until use.
Chd2^R1684H genotyping was performed via a two-step, nested approach. Except for experiments described in FIGS. 3A-3G, all 8 μL of embryo DNA were used as input for the initial, long round of PCR. Genotyping of mouse pups and adult animals was performed using 2 μL of purified tail DNA. For all embryo genotyping, reactions mixtures were set up in a UV-sterilized laminar flow hood using sterile reagents and filter tips to avoid contamination. […]

B1: RAD51: recombinant human strand exchange protein RAD51 (Creative Biomart RAD51-134H), transcript variant 4 (protein, UniProt Q06609 2-339, looked up)
DNA repair protein RAD51 …: AMQMQLEANADTSVEEESFGPQPISRLEQCGINANDVKKLEEAGFHTVEAVAYAPKKELINIKGISEAKADKILAEAAKLVPMGFTTATEFHQRRSEIIQITTGSKELDKLLQGGIETGSITEMFGEFRTGKTQICHTLAVTCQLPIDRGGGEGKAMYIDTEGTFRPERLLAVAERYGLSGSDVLDNVAYARAFNTDHQTQLLYQASAMMVESRYALLIVDSATALYRTDYSGRGELSARQMHLARFLRMLLRLADEFGVAVVITNQVVAQVDGAAMFAADPKKPIGGNIIAHASTTRLYLRKGRGETRICKIYDSPCLPEAEAMFAINADGVGDAKD
Q: With B1 as the molecule, how does the “ICHR observed, share of injected embryos” value (PNI at ~8 hpf of Cas9/crRNA/tracrRNA, no donor, 26% in control injected embryos) read?
A: 74%

Q: And the indel-to-ICHR ratio (compared to control embryos)?
A: drastic decrease

Q: What about the overall indel rate (compared to control embryos) of the same molecule?
A: drastic decrease

Reference: US11643670B2, “Methods of enhancing chromosomal homologous recombination” (Massachusetts Institute of Technology, priority 2018, dated 2023)
